In patent US20260184748A1 (University of Pennsylvania, published 2026):
Where no end group is shown, it is not given here.

What was measured:
Test in all cases: cell-based or functional assay
[1] = biological target: KISS1R (UniProt Q969F8 1-398)
[2] = biological target: NPFFR1 (UniProt Q9GZQ6 1-430)
[3] = biological target: T1, NPSR1B (UniProt Q6W5P4-4 1-377, limits assumed)
T1 sequence (looked up): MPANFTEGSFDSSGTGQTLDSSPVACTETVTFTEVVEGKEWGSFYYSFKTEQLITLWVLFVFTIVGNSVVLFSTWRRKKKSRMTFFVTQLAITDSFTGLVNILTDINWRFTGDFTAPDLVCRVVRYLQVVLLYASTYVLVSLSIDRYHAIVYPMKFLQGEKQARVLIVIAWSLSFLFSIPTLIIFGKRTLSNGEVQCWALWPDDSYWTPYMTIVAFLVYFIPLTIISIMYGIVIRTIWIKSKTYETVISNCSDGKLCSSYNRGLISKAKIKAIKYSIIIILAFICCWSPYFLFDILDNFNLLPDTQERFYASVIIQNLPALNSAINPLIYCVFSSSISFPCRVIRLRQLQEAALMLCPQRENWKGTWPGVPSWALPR

[4] = biological target: OXER1 (UniProt Q8TDS5 1-384, limits assumed)
Sequence of OXER1 (Q8TDS5 whole entry): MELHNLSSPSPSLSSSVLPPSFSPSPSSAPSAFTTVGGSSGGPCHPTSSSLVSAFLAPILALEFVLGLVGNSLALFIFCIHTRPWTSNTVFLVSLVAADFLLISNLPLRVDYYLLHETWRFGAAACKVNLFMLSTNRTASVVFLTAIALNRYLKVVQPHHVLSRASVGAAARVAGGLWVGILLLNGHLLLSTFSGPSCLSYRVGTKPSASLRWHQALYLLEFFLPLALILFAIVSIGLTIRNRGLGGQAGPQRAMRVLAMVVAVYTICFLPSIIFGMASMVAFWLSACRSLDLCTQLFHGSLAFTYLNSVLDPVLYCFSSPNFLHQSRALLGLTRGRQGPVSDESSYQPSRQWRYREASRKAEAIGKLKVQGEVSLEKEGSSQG

[5] = biological target: P2RY2 (UniProt P41231 1-377)
Sequence of P2RY2 (P41231 whole entry): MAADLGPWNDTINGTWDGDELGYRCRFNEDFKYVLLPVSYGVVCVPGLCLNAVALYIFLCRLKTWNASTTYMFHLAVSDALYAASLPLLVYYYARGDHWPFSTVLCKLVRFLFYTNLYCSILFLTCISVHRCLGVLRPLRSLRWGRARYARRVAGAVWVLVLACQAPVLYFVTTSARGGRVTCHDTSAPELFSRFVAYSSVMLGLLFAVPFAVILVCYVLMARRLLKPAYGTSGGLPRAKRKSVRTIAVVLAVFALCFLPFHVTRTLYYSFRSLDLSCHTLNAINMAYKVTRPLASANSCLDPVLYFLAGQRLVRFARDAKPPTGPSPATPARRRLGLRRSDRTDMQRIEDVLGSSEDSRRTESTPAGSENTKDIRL

[6] = biological target: T2, TBXA2R (UniProt P21731 1-343, limits assumed)
T2 sequence (looked up): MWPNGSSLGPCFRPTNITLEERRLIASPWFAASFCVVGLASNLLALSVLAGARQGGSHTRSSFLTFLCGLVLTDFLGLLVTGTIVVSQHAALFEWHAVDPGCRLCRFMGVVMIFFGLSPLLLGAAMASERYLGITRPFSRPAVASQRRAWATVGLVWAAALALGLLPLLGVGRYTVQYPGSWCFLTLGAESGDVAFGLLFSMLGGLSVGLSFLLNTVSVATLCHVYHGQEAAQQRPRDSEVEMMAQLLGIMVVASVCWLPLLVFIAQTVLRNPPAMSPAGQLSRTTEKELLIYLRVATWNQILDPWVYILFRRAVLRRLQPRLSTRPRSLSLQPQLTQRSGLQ

[7] = biological target: TSHR(L) (UniProt P16473 21-764, limits assumed)
[8] = biological target: CALCRL-RAMP3 (UniProt Q16602 23-461; O60896 24-148)
Sequence of CALCRL-RAMP3 (Q16602 23-461 limits assumed, chain 1 of 2): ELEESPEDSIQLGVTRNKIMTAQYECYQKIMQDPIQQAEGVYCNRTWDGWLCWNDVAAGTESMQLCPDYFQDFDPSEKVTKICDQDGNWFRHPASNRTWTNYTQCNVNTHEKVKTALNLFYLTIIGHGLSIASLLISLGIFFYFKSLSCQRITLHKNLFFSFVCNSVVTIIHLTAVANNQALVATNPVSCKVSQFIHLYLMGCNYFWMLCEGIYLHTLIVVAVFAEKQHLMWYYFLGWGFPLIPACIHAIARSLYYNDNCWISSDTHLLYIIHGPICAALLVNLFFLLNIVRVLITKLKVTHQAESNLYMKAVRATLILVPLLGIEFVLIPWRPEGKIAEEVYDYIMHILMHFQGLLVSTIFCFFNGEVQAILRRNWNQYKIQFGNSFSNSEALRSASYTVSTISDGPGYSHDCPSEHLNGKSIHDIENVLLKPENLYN
Sequence of CALCRL-RAMP3 (O60896 24-148 limits assumed, chain 2 of 2): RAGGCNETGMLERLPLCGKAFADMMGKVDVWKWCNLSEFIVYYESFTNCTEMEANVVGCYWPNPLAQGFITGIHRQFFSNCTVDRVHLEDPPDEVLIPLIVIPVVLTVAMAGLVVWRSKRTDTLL

[9] = biological target: T3, CRTH2 (UniProt Q9Y5Y4 1-395)
T3 sequence (looked up): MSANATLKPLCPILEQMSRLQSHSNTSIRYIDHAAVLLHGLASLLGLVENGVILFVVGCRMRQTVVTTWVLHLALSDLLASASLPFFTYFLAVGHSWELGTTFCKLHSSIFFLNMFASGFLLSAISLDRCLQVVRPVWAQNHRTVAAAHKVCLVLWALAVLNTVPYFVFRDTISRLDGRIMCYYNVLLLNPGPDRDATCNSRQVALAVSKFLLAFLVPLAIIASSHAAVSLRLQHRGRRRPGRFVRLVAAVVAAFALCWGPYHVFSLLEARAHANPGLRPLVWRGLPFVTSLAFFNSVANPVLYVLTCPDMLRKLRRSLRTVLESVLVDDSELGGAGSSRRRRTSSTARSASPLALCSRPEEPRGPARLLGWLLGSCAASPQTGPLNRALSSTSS

[10] = biological target: DRD1 (UniProt P21728 1-446)
Sequence of DRD1 (P21728 whole entry): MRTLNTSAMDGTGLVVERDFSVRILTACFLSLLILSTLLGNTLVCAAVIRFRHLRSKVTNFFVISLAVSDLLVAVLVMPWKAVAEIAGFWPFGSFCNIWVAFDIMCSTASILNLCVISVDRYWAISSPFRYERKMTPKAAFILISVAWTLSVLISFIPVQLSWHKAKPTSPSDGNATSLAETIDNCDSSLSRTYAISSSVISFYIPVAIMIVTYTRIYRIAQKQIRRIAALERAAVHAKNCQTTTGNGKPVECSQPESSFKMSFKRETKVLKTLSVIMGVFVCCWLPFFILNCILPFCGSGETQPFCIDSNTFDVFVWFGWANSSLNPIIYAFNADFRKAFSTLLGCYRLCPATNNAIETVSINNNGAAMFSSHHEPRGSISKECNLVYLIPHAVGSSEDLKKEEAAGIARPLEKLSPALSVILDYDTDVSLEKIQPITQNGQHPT

[11] = biological target: T4, EDG6 (UniProt O95977 1-384)
T4 sequence (looked up): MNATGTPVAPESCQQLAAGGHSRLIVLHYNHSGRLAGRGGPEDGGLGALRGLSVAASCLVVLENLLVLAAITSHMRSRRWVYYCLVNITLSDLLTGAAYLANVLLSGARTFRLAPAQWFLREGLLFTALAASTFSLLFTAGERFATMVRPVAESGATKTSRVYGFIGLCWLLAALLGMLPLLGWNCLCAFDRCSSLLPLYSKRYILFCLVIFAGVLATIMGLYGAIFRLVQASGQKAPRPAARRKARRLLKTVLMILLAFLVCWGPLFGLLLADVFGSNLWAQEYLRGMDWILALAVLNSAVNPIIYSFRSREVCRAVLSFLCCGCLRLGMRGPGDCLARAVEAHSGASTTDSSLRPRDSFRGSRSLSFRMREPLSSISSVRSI

[12] = biological target: F2RL1 (UniProt P55085 26-397, limits assumed)
[13] = biological target: FFAR1 (UniProt O14842 1-300)
Sequence of FFAR1 (O14842 whole entry): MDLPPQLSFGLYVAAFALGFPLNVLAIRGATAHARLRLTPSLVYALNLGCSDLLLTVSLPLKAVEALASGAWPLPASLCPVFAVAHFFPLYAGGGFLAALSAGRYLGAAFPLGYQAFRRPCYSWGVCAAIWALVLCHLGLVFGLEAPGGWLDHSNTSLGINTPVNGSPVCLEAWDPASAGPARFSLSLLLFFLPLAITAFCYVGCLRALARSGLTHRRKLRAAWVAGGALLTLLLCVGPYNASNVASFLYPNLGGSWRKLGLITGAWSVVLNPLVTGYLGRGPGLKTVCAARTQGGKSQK

[14] = biological target: T5, GIPR (UniProt P48546 22-466)
T5 sequence (looked up): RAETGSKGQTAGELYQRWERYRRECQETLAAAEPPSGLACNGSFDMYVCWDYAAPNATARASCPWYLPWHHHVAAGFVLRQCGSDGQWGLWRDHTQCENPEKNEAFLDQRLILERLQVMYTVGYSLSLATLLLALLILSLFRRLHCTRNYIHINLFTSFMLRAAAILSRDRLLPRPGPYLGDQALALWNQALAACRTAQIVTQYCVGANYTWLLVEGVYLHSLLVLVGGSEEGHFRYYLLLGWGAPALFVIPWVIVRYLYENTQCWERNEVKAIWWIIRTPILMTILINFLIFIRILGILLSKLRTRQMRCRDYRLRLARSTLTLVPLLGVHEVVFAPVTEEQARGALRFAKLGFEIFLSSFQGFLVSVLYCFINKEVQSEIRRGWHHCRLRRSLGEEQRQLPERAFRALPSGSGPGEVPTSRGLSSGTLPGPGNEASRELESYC

[15] = biological target: GPR109B (UniProt P49019 1-387)
Sequence of GPR109B (P49019 whole entry): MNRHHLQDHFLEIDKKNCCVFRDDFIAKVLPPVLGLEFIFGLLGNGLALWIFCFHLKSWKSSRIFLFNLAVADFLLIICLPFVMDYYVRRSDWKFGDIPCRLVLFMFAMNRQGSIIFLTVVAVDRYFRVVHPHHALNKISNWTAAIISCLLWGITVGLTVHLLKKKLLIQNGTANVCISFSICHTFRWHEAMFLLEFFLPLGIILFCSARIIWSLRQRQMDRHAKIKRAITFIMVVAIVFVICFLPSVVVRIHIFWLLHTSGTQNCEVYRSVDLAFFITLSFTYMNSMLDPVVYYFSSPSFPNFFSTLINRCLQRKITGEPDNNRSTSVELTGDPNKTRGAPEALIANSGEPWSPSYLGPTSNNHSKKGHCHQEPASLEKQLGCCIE

Sequence of NPFFR1 (Q9GZQ6 whole entry): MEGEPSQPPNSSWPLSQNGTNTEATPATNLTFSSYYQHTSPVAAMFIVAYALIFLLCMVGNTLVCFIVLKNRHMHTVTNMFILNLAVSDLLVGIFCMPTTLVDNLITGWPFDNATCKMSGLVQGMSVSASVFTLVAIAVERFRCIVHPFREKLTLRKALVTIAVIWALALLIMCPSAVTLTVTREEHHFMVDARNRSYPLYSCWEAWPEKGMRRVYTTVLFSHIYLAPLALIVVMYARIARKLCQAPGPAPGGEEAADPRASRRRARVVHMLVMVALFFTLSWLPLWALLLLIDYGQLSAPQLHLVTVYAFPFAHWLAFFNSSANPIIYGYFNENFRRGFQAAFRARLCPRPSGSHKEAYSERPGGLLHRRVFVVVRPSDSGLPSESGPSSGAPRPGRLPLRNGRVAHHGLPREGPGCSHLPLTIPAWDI
Sequence of KISS1R (Q969F8 whole entry): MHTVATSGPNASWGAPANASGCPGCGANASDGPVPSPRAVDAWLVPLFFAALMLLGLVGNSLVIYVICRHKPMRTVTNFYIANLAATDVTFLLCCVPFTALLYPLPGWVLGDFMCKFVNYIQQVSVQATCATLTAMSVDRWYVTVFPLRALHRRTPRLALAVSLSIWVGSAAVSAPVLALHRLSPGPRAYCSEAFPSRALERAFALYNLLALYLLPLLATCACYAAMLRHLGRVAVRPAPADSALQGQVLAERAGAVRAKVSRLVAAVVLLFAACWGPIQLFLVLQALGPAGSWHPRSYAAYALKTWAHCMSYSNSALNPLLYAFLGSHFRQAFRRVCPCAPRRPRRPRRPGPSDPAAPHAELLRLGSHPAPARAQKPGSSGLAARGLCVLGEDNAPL

QATVGDVNTDRPGLLDLK (also: synthesised on Rink amide resin, C-terminal amide not given here outright) [octadecaneuropeptide (ODN)]
% Activity, arrestin, antagonist mode, 2.5 uM [1]: 13.2%
% Activity, arrestin, antagonist mode, 2.5 uM [2]: -4.2%
% Activity, arrestin, antagonist mode, 2.5 uM [3]: 15.5%
% Activity, arrestin, antagonist mode, 2.5 uM [4]: -39.7%
% Activity, arrestin, antagonist mode, 2.5 uM [5]: -5.2%
% Activity, arrestin, antagonist mode, 2.5 uM [6]: 16.2%
% Activity, arrestin, antagonist mode, 2.5 uM [7]: -19.1%
% Activity, arrestin, antagonist mode, 2.5 uM [8]: -3.5%
% Activity, arrestin, antagonist mode, 2.5 uM [9]: 0.6%
% Activity, arrestin, antagonist mode, 2.5 uM [10]: 5.7%
% Activity, arrestin, antagonist mode, 2.5 uM [11]: 4.5%
% Activity, arrestin, antagonist mode, 2.5 uM [12]: -9.2%
% Activity, arrestin, antagonist mode, 2.5 uM [13]: -3.9%
% Activity, arrestin, antagonist mode, 2.5 uM [14]: -18.9%
% Activity, arrestin, antagonist mode, 2.5 uM [15]: -17%
